Assay: yeast display, Sf9 membrane polyspecificity reagent, FACS + sequencing; frameworks hold sequencing errors
Procedure, shortened: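 Galactose induction of a Saccharomyces cerevisiae BJ5465 synthetic nanobody display library ran 36–48 hours. The cells were then stained for 1 hour at 4 °C with 10% biotinylated, detergent-solubilized Sf9 membrane reagent, pulled down on streptavidin microbeads and FACS-sorted into low and high (top ~1%) gates on expression and reagent-binding fluorescence. Labels for polyreactivity follow the gate of origin.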

Sequence	polyreactivity (PSR sort gate)
QVQLVESGGGLVQAGGSLRLICAASGSTFAYNDMGWYRQAPGKERELVADIRSGGNTNYADSVKGRFTISRDNAKNTVYLQMNSLKPEDTAVYYCATDCYRIDVYHPDYRYDYWGQGTQVTVSS	low polyreactivity
QVQLVESGGRLVQAGGSLRLSCAASGRTFSTYDMGWSRQAPGKERELVAAITSTGDTPYYADSVKGRFTISRDTAKNTVYLQLNSLKPEDTAVYYCAAYASWHQWIYAFYGLDYWGQGTQVTVSS	low polyreactivity
QVQLVESGGGLVQAGGSLRLSCAASGFIFTKYTKGWYRPAPGTERELVAAIRSDGVRTYYADSVKGRFTISRDNAKNTVYLQMNSLKPEDTAVYYCAAYKAVPHYYYWGQGTQVTVSS	high polyreactivity
QDQLVESGGGLVQAGGSLRLSCGASGGIFWKYAMGWYRQAPGKERELVAAISRSGSSTYYADSVKGRFTISRDNAKNTVYLQMNSLKPEDTAVYYCAAQPYDSNYGNSGYWGQGTQVTVSS	high polyreactivity
QVQLVESGGGLVQAGGSLRLSCAASGGIYLDYAMGWYRQAPGKERELVADINSGADTSYADSVKGRFTISRDNAKNTVYLQMNSLKPEDTAVYYCADDIYVFNGQVYSYGYGYWGQGTQVTVSS	low polyreactivity
QVQLVESGGGLVQAGGSLRLSCAASGFIFQPYAMGWSRQAPGKERELVAAITSRGGRTYYADSVKGRFTISRDNAKNTVYLQMNSLKPEDTAVYYCNADIYASEYYYWGQGTQLTVSS	low polyreactivity
QVQLVESGGRLVQAGVSLRISSAASGYISRVYAMGWYRHAPGKERELVAAITRSTTYYADSVKGRFTISRDNAKNTVYLQMNSLKPEDTAVDYCNADWASPGQVRMYYWGQGTQVTVSS	high polyreactivity
QVQLVESGGGLVQAGGSLRLSCAATGINITSNTMGWYRLAPGKEREFVASINWNGSSTYADSVKGRFTISRDNAKNTVYLQMNSLKPEDTAVYYCNADYNRNSVQFSLYDYWGQGTQVTVSS	low polyreactivity
QVQLVKSGGGLVQAGGSLRLSCAASGFIIPEYTMGWYRQAPGKERELVAAISGSGGSTYYADSVKGRFTISRDNAKNTVYLQMNSLKPEDTAVYYCAASYAVSRYLQTYAHAHGYWGQGTQVTVSS	low polyreactivity
QVQLVESGGGLVQAGGSLRLSCAASGSTFGFYAMGGYRQAPGKERELVAAITSGDITYADSVKGRFTISRDNAKNTVYLQMNSLKPEDTAVYYCATTSYGYWFGYIPEVDYWGQGTQVSVSS	low polyreactivity
QVQLVESGGGLVQAGGSLRLTCAASGITFGRNVMGWYRQAPGKEMELVATISGSAGYTYYADSVKGRFTISRDYAKNTVYFQMNSLKPEDTSVYYCAARQRKARQIVLLDYWGQGTKVTVSS	high polyreactivity
QVQIVESGGGLVQAGGSHRLSCAATGLTFKYYAMGWYIQAPGKERELVAAISRSGGSTYYADSVKGRFTISRDNAKNTVYLQKNSLKPEDTAVYYCNARAGRYYSVYYPGDYWGQGTQVTVSS	high polyreactivity
QVQLVESGGGLVQAGGSLRLSCAASGSILYSYPMGWYRQAPGKERELVAAITGDGASTTYADSVKGRFTISRDNAKNTVYLQLNSLKPEDTAVYYCKAGRESDDVSEGSQRICQFDYWGPGTQVTVSS	low polyreactivity
QVQLVESGGGLVQAGGSLRLSCAASGRKFNGYDMGWYRQAPGKERELVAPINNSGGTDNTYYADSVKGRFTISRDNAKNTVYLQMNSLKPEDTAVYYCNAGPVWDQWWLYYYWGQGTQVTVSS	high polyreactivity
QVQLVESGGGLVQAGGSLRLSCAASGIIFAWYAMGWYRQAPGKERELVAAISGRGGRTYYADSVKGRFTISRDNAKNTVYLQMNSLKPEDTPVYYCNKDKSVIYDYWGQGTQVTVSS	high polyreactivity
QVQLVESGGGLVQAGGSLRLSCAASGRTFSVNAMGWYRQAPGKERELVAAISWSTGSTYYADSVKGRFTISRDNAKNTVYLQMNSLKPEDTAVYYCAKLYEYRRSRYRTYGYWGQGTQVTVSS	high polyreactivity

Sequence	polyreactivity (PSR sort gate)
QVQLVESGGGLVQAGGSLRLSCAASGRTFNWNALGWYRQAPGKERELVATISRRGGSTYYADSVKGRFTISRDNAKNTVYLQMNSLKREDTAVYYCITAGRYGYDYWGQGTQVTVSS	high polyreactivity
QVQLVESGGGLVQAGGSLRLSCAASGRTFQRYAMGWYRQAPGKERELVAAITSGSRTNYADSVKGRFTSSRDNAKNTVYLQMNSLKPEDTAVYYCAADYTWRNNYCGQGTQVTVSS	high polyreactivity
QFQLVESVGGLVQAGSRLRLSCAASGRTFIPYAMGWYRQAPGKERELVAAITSSGGLTYYADSVMGRFTISRDNAKNTVYLQMNSLKPEDTAVYYCNKYARGYDMDYWGHGTQVTVSS	high polyreactivity
QVQLVESGGGLVQAGGSLRLSCAASGSTFTPYAMGWYRQAPGQEREFVAAITSIGGSTYYADSVKGRITISRDNAKNTVYLQMIRLKPEDTAVYNCAADYSEWTLWNDYWGQCTQVTVSS	high polyreactivity
QVKLVESGGGLVQAGGSLRLSCAASGRIFQPYAMGWYRQAPGKERELVADITYRDGSTYFADSVKGRFTISRDNAKNTVYLQMNSLKPEDTAVYYCNADGEYAKDDWFHWYDYWGQGTQVTVSS	high polyreactivity
QVQLVESGGGLVQARRSLRLSCAASGSTFVQYAMGWDRQAPGNERELVASISYSTGSSTYYADSVKGRFTISRDNAKTTVYLQMNSLKPEDTAFYECAAGIPKGGWSRPRYYYWGQGTQVTVSS	high polyreactivity
QVQLVESGGGLVQAGGSLRLSCAASGRIVWSYGMGWYRQAPGKERELVAAITNTGDGTYYADSVKGRFTISRDNAKNTVYLQMNSLKPEDTAVYYCAVDYRGYWYWEYDYWGQGTQVTVSS	high polyreactivity
QVQLVESGGGLVQAGGSLRLSCAASGGTLRGYAMGGYRQAPGKEREFDATISRRGGSTYYADSVKGRFTNSRDNAKNTVYLQMNSLKPEDTAVYYCAKQGQSDYYSWGQGTQVTVSS	high polyreactivity
QVQLVESGGGLVQAGGSLRLSCAASGSTFNGYAMGWSRQAPGKERELVAAISWSSGSTYYADSVKGRFTISRDNAKNTVYLQMNSLKPEDTAVYYCNKYYGYHKIKEYDYWGQGTQVTVSS	high polyreactivity
QVQLVESGGGLVQAGGSLRLSCAASGSIFFSYAMGWYRQAPGKERELVATITTSGGRTRYADSVKGRFTISRDNAKNTVYLQMNSLKPEETAVYYCAAAPWDAPWSGYEYWGQGTQVTVSS	high polyreactivity
QVHLVESGGRLVQAGGSLRLSSAASGSIFVKNAMGWYRQAPGKERELVATISSGGSTYYADSVKGRFTISRDNAKNTVYLQMNSLKPEDTAVYYSNTASYVSWYVHYYYWGVGTQVTVSS	low polyreactivity
QVQLQESGGGLVQAGGSLLLSCAASGSSYDDTYMGWYRQAPGKERELVATIDSGSTTNYADSVKGRNTISRDNAKYTLYLQMNSLKPEDTAVYYCAAADSHIDYFDYWGQGTQVTVSS	low polyreactivity
QVQLVESGGGLVQAGGSLRLSCAASGIIFQAYDMGWYRQAPGKERELVAAISYSGGSTYYADSVKGRFTISRDNAKNTVYLQMNSQKPEDTAVYYCAATFYGYFDSVFSWGYYYCGQGTQVTVSS	low polyreactivity
QVQLVESGGGLVQAGGSLRLSCAASGFIFRYNTMGWYRQAPGKERELVAAISVSGARTYYADSVKGRFTISRDNAKNTVYLQMNSLKPEDTAVYYCNRRYPFYSRYNNDYWGQGTQVTVSS	high polyreactivity
QVQLVESGGGLVQAGGSLRLSCAASGFTFFYVYTMGWYRQAPGKEREFVAAIDWTGRTYYADSVKGRFTISRDNAKNTVYLQMNSLKPEDTAVYYCNADVAPGIFYGYDSWGQGTQVTVSS	low polyreactivity

Source: the nanobody polyreactivity screen of Harvey et al. (2022)
